Laboratory results published in patent publication US20030224992A1, “Transcription factor modulators and uses thereof” (Praecis Pharmaceuticals Inc., priority 2002, published 2003).
Read-outs that look alike come from different tables or passages of the source.

Experiments:
[1] = biological target: T1, Androgen receptor DNA binding domain (GST-ARDBD) (UniProt P10275 P10275:560-632); test: FP; labelled probe, 1 nM with 50 nM GST-ARDBD; settings: tags: GST fusion; chain copies: 2; label: 5'-FAM on top strand
[2] = biological target: T1, Androgen receptor DNA binding domain …; test: FP; scrambled MPS control, competition with FAM-ARE; settings: tags: GST fusion; chain copies: 2
[3] = biological target: T1, Androgen receptor DNA binding domain …; settings: tags: GST fusion; chain copies: 2
[4] = biological target: T1, Androgen receptor DNA binding domain …; test: FP; scrambled control, competition with FAM-ARE; settings: tags: GST fusion; chain copies: 2
[5] = biological target: T1, Androgen receptor DNA binding domain …; test: FP; competition with 1 nM FAM-ARE, 50 nM GST-ARDBD; room temperature; settings: tags: GST fusion; chain copies: 2

T1 sequence (P10275 560-632, one chain of several): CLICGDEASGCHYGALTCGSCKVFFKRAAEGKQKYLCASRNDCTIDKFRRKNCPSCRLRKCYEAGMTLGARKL

B1: FAM-ARE duplex (dsDNA)
DNA 1: AGTCTGGTACAGGGTGTTCTTTTTA
DNA 2: TAAAAAGAACACCCTGTACCAGACT
- binding result [1]: binds

B2: AREsc-MPS scrambled (dsDNA)
DNA 1: AGTCTACGAGTGGGGTTCTTTTTTA
DNA 2: TAAAAAAGAACCCCACTCGTAGACT
modifications: membrane permeable peptide Ac-…-NH2 conjugate
- binding result [2]: no binding

B3: ARE duplex (dsDNA)
DNA 1: AGTCTGGTACAGGGTGTTCTTTTTA
DNA 2: TAAAAAGAACACCCTGTACCAGACT
- binding result [3]: binds

B4: AREsc scrambled (dsDNA)
DNA 1: AGTCTACGAGTGGGGTTCTTTTTTA
DNA 2: TAAAAAAGAACCCCACTCGTAGACT
- binding result [4]: no binding

B5: ARE-MPS duplex (dsDNA)
DNA 1: AGTCTGGTACAGGGTGTTCTTTTTA
DNA 2: TAAAAAGAACACCCTGTACCAGACT
modifications: membrane permeable peptide Ac-…-NH2 conjugated at 5' of top strand
- binding result [5]: binds
